In publication PMC12835413, “Allosteric zinc inhibition and interdomain regulation govern the catalytic mechanism of the E3-independent ubiquitin-conjugating enzyme hUBE2O” (The Journal of Biological Chemistry, 2025):

Target: the molecule itself
Assay: SEC-MALS; 100 ul of 2 mg/ml purified Flag-UBE2O-TwinStrep on Superdex 200 Increase 5/150 GL; 50 mM Tris-HCl pH 7.4, 200 mM NaCl, 0.5 mM TCEP

B1: Flag-UBE2O-TwinStrep (purified recombinant Homo sapiens UBE2O) (enzyme, human, UniProt Q9C0C9 1-1292, looked up)
chain: MADPAAPTPAAPAPAQAPAPAPEAVPAPAAAPVPAPAPASDSASGPSSDSGPEAGSQRLLFSHDLVSGRYRGSVHFGLVRLIHGEDSDSEGEEEGRGSSGCSEAGGAGHEEGRASPLRRGYVRVQWYPEGVKQHVKETKLKLEDRSVVPRDVVRHMRSTDSQCGTVIDVNIDCAVKLIGTNCIIYPVNSKDLQHIWPFMYGDYIAYDCWLGKVYDLKNQIILKLSNGARCSMNTEDGAKLYDVCPHVSDSGLFFDDSYGFYPGQVLIGPAKIFSSVQWLSGVKPVLSTKSKFRVVVEEVQVVELKVTWITKSFCPGGTDSVSPPPSVITQENLGRVKRLGCFDHAQRQLGERCLYVFPAKVEPAKIAWECPEKNCAQGEGSMAKKVKRLLKKQVVRIMSCSPDTQCSRDHSMEDPDKKGESKTKSEAESASPEETPDGSASPVEMQDEGAEEPHEAGEQLPPFLLKEGRDDRLHSAEQDADDEAADDTDDTSSVTSSASSTTSSQSGSGTSRKKSIPLSIKNLKRKHKRKKNKITRDFKPGDRVAVEVVTTMTSADVMWQDGSVECNIRSNDLFPVHHLDNNEFCPGDFVVDKRVQSCPDPAVYGVVQSGDHIGRTCMVKWFKLRPSGDDVELIGEEEDVSVYDIADHPDFRFRTTDIVIRIGNTEDGAPHKEDEPSVGQVARVDVSSKVEVVWADNSKTIILPQHLYNIESEIEESDYDSVEGSTSGASSDEWEDDSDSWETDNGLVEDEHPKIEEPPIPPLEQPVAPEDKGVVISEEAATAAVQGAVAMAAPMAGLMEKAGKDGPPKSFRELKEAIKILESLKNMTVEQLLTGSPTSPTVEPEKPTREKKFLDDIKKLQENLKKTLDNVAIVEEEKMEAVPDVERKEDKPEGQSPVKAEWPSETPVLCQQCGGKPGVTFTSAKGEVFSVLEFAPSNHSFKKIEFQPPEAKKFFSTVRKEMALLATSLPEGIMVKTFEDRMDLFSALIKGPTRTPYEDGLYLFDIQLPNIYPAVPPHFCYLSQCSGRLNPNLYDNGKVCVSLLGTWIGKGTERWTSKSSLLQVLISIQGLILVNEPYYNEAGFDSDRGLQEGYENSRCYNEMALIRVVQSMTQLVRRPPEVFEQEIRQHFSTGGWRLVNRIESWLETHALLEKAQALPNGVPKASSSPEPPAVAELSDSGQQEPEDGGPAPGEASQGSDSEGGAQGLASASRDHTDQTSETAPDASVPPSVKPKKRRKSYRSFLPEKSGYPDIGFPLFPLSKGFIKSIRGVLTQFRAALLEAGMPECTEDK
notes: Homo sapiens UBE2O (ubiquitin-conjugating enzyme E2O), UniProt Q9C0C9, from plasmid pLV-Flag-hUBE2O-TS; also called hUBE2O; Flag-hUBE2O-TwinStrep; source: Expi293F cells, purified; not shown: Flag, N-terminal, kept
stoichiometry N: 2
